Results from paper doi:10.1101/2022.05.27.493400.
Several values for one entry are separate records, joined by “and”; a condition that tells them apart may be missing. Identical values can stand only once.

Tests used:
[1] = molecular target: pineapple-derived jacalin-related lectin AcmJRL (pineapple (Ananas comosus)); assay: dynamic light scattering
[2] = molecular target: SARS-CoV-2 spike receptor-binding domain (RBD) (SARS-CoV-2) (UniProt P0DTC2); assay: SPR
[3] = molecular target: human angiotensin-converting-enzyme-2 (ACE2) receptor, recombinant (human) (UniProt Q9BYF1); assay: SPR

Question: For “pineapple-derived jacalin-related lectin AcmJRL (natural protein)”, which stoichiometry N [1] is on record?
Answer: The stoichiometry N was 2.

Question: And the Kd [2]?
Answer: Its Kd is 12.9 µM and 35 µM.

Question: And the kon [2]?
Answer: Its kon is 1490 M⁻¹ s⁻¹.

Question: What about the Kd [3] of the same substance?
Answer: The Kd was 22.1 µM.

Question: And the kon [3]?
Answer: The kon was 590 M⁻¹ s⁻¹.
